What all share (assay): ELISA
Test [1] deals with T1, HD21 (huntingtin exon 1 protein with 21 polyQ repeats after cleavage of the GST tag; aggregation reaction) (human, UniProt P42858 1-88).
T1 chain: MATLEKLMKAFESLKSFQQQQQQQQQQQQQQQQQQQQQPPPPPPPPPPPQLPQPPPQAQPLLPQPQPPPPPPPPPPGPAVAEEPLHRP

Test [2] concerns the target T2, HD49 (huntingtin exon 1 protein with 49 polyQ repeats after cleavage of the GST tag; aggregation reaction) (human, UniProt P42858 1-88).
T2 chain: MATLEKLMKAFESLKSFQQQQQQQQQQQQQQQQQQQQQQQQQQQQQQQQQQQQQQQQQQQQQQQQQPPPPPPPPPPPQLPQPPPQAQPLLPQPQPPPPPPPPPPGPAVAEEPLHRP

Test [3] concerns the target T3, GST-HttExon1Q21 (recombinant huntingtin exon 1 protein with 21 polyQ repeats fused to an N-terminal GST tag) (;human, UniProt P08515 1-218 = GST; P42858 1-88).
For test [4], the target named is T4, BSA-coupled synthetic peptide of the polyP repeat sequence of huntingtin exon 1 (coupled to BSA).
T4 peptide: PPPPPPPPPPP

Test [5] deals with T1, HD21 (huntingtin exon 1 protein with 21 …).
In test [6] the target is T2, HD49 (huntingtin exon 1 protein with 49 …).
Test [7] has as its target T3, GST-HttExon1Q21 (recombinant huntingtin …). The source holds these as a separate data set.
Target sequence in this assay (P08515 1-218, tags or fused parts left off): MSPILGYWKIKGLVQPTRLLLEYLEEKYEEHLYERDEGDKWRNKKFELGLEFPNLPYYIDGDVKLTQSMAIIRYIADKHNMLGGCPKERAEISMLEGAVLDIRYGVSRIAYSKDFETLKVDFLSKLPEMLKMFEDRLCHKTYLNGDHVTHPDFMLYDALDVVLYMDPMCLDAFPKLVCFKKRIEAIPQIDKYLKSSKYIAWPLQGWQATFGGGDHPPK
The target of test [8] is T1, HD21 (huntingtin exon 1 protein with 21 …).
For test [9], the target named is T3, GST-HttExon1Q21 (recombinant huntingtin …). This is another data set of the same source.

Like-named read-outs stand apart in the source and are kept apart here.

What is called EC50 is the concentration giving half of the maximal effect.

B1: NI-302.33C11 (antibody, V domains shown)
VH: EVQLVESGGGVVQPGNSLRLSCAASGFRFSDFGMHWVRQAPGKGLEWLALIWYDGGYKYYADSVKGRFTISRDNSKNTMFLQMNSLRAEDTAVYYCATHLEYCSRTTCYLGHWGQGTLVTVSS
VL: DIQLTQSPSFLSASVGDTVTFTCRASQGISDYLAWFQQKPGIAPKLLIYAASTLQTGVPSRFSGSGSGTEFTLTIRSLQSEDFGTYYCQQLKTYPYTFGQGTKVEIK
In the case of B1, the half-maximal effective concentration (EC50) turned out to be 0.13 nM in test [1]; 0.15 nM in [2]; 0.11 nM in test [3]; 0.1 nM in [4]; 0.13 nM in test [5]; 0.15 nM in [6]. Further, in test [7], the half-maximal effective concentration (EC50) came to 0.11 nM.

B2: NI-302.35C1 (antibody, V domains shown)
VH: EVQLVESGGNLVQPGGSLRLSCTASGFTFSITALSWVRQAPEKGPQWVSAITGNAYGTYYADSVKGRFTISRDNAKNTLYLQMNGLRAEDTAIYYCVKGIASDSSGYSAFWGPGTLVTVSS
VL: EIVLTQSPATLSLSPGERATLSCRASQSVDNQFAWYQQKPGQAPRLLIYDASRRAPGIPDRFSGSGSGTDFTLTISSLEPEDFAIYYCQHRYTWLYTFGQGTRLEIK
For the molecule B2, the 50% effective concentration (EC50) was 7.9 nM in test [5], 4.6 nM in test [7], 7.9 nM in test [8] and 4.6 nM in test [9].

Source of the values: patent US20170166631A1 (published 2017).
